Where a chain is given by its changes, count along the chain named. Names may count otherwise. Where two headings read alike, the source gives them in different places.
B1: MBP::BAF-1 (wild-type C. elegans barrier to autointegration factor 1 fused to maltose-binding protein) (natural protein, UniProt Q03565 1-89, looked up)
chain: MSTSVKHREFVGEPMGDKEVTCIAGIGPTYGTKLTDAGFDKAYVLFGQYLLLKKDEDLFIEWLKETAGVTANHAKTAFNCLNEWADQFM
B2: MBP::BAF-1 F46E (natural protein, C. elegans, UniProt Q03565 1-89, looked up)
chain: B1 chain with F46E
B3: MBP::BAF-1 K6A (natural protein, C. elegans, UniProt Q03565 1-89, looked up)
chain: B1 chain with K6A
B4: MBP::BAF-1 S4A (natural protein, C. elegans, UniProt Q03565 1-89, looked up)
chain: B1 chain with S4A
B5: MBP::BAF-1 S4E (natural protein, C. elegans, UniProt Q03565 1-89, looked up)
chain: B1 chain with S4E
B6: His::emerin 1–125 (Ce-emerin residues 1–125, nucleoplasmic domain only) (domain or fragment, C. elegans, UniProt O01971 1-125, looked up)
chain: MDVSQLTDAELRDSLKSHGVSVGPIVATTRKLYEKKLIKLSDGSINNQSNLNDSQFNEDSLIISSSPKKSPPQRVFQNVSAATAAATTSPESDSDDCEESMRYLTEEEMAADRASARQAQSNKGG
B7: His::lamin R55H (full-length Ce-lamin bearing the R55H mutation) (natural protein, C. elegans, UniProt Q21443 1-566, looked up)
chain: MSSRKGTRSSRIVTLERSANSSLSNNGGGDDSFGSTLLETSRLQEKDHLTSLNSHLATYIDKVRQLEQENNRLQVQIRDIEVVEKKEKSNLADRFEAEKARLRRALDSAQDELAKYRIEYDAAKVEVKKLKPQVEKLERELAGAEEQALHAQSIADQSQAKQKTLQARNDKLVVENDDLKKQNITLRDTVEGLKKAVEDETLLRTAANNKIKALEEDLAFALQQHKGELEEVRHKRQVDMTTYAKQINDEYQSKLQDQIEEMRAQFKNNLHQNKTAFEDAYKNKLNAARERQEEAVSEAIHLRARVRDLETSSSGNASLIERLRSELDTLKRSFQEKLDDKDARIAELNQEIERMMSEFHDLLDVKIQLDAELKTYQALLEGEEERLNLTQEAPQNTSVHHVSFSSGGASAQRGVKRRRVVDVNGEDQDIDYLNRRSKLNKETVGPVGIDEVDEEGKWVRVANNSEEEQSIGGYKLVVKAGNKEASFQFSSRMKLAPHASATVWSADAGAVHHPPEVYVMKKQQWPIGDNPSARLEDSEGDTVSSITVEFSESSDPSDPADRCSIM
B8: Ce-lamin tail domain (residues 388–566), His-tagged (domain or fragment, C. elegans, UniProt Q21443 388-566, looked up)
chain: NLTQEAPQNTSVHHVSFSSGGASAQRGVKRRRVVDVNGEDQDIDYLNRRSKLNKETVGPVGIDEVDEEGKWVRVANNSEEEQSIGGYKLVVKAGNKEASFQFSSRMKLAPHASATVWSADAGAVHHPPEVYVMKKQQWPIGDNPSARLEDSEGDTVSSITVEFSESSDPSDPADRCSIM

How the values were obtained:
Test in all cases: SPR
[1] = biological target: B7
[2] = biological target: B6
SPR [3] = biological target: the molecule itself
[4] = biological target: B7; remark: listed apart in the source
SPR [5] = biological target: the molecule itself; remark: listed apart in the source

| Binder | Kd [1] [nM] | Kd [2] [nM] | Kd (SPR [3]) [nM] | Kd [4] [nM] | Kd (SPR [5]) [nM] |
| --- | --- | --- | --- | --- | --- |
| B1 | 84 | 57 | – | – | – |
| B2 | 623 | 5.6 | – | – | – |
| B3 | 198 | 31 | – | – | – |
| B4 | 281 | 20 | – | – | – |
| B5 | 32100 | ~57 | – | – | – |
| B6 | – | – | 14 | 4 to 5 | – |
| B7 | – | – | – | – | 3.7 |
| B8 | 0.56 | – | – | – | – |

Source: paper PMC3967975 (Molecular Biology of the Cell, 2014)
